From article PMC9995517 (2023)
Residue numbers refer to the chain shown, from its start. Names and notes keep the numbering of the source. Values belong to the binder of their own block, whether it stands above or below them.

Target: F-actin (preassembled filaments of rabbit skeletal muscle actin) (rabbit, UniProt P68135 1-377)

Kd: 0.8 µM
B1: tyrosyl-tRNA synthetase E196K (CMT-causing mutant), recombinant Xpress-6xHis tagged (His-YARS1^E196K) (enzyme)
chain: MGDAPSPEEKLHLITRNLQEVLGEEKLKEILKERELKIYWGTATTGKPHVAYFVPMSKIADFLKAGCEVTILFADLHAYLDNMKAPWELLELRVSYYENVIKAMLESIGVPLEKLKFIKGTDYQLSKEYTLDVYRLSSVVTQHDSKKAGAEVVKQVEHPLLSGLLYPGLQALDEEYLKVDAQFGGIDQRKIFTFAKKYLPALGYSKRVHLMNPMVPGLTGSKMSSSEEESKIDLLDRKEDVKKKLKKAFCEPGNVENNGVLSFIKHVLFPLKSEFVILRDEKWGGNKTYTAYVDLEKDFAAEVVHPGDLKNSVEVALNKLLDPIREKFNTPALKKLASAAYPDPSKQKPMAKGPAKNSEPEEVIPSRLDIRVGKIITVEKHPDADSLYVEKIDVGEAEPRTVVSGLVQFVPKEELQDRLVVVLCNLKPQKMRGVESQGMLLCASIEGINRQVEPLDPPAGSAPGEHVFVKGYEKGQPDEELKPKKKVFEKLQADFKISEECIAQWKQTNFMTKLGSISCKSLKGGNIS

Kd: 0.75 µM
B2: tyrosyl-tRNA synthetase, wild type, recombinant Xpress-6xHis tagged (His-YARS1^WT) (enzyme)
chain: B1 chain with K196E
